{"source": "patent US20050170468A1", "about": "(published 2005)", "test_in_all_cases": "radiolabeled ligand binding assay on stably transfected BHK cells", "key": {"[1]": {"molecular_target": "T1, IL-20RA/IL-20RB heterodimeric receptor (on cells) (human, UniProt Q9UHF4 30-553; Q6UXL0 30-311)", "T1 construct": "Both subunits are on the same cell (COS, BHK or BaF3 transfectants, or HaCaT endogenously); also called IL-20 receptor; ZcytoR7/pDIRS1", "T1 sequence 1": "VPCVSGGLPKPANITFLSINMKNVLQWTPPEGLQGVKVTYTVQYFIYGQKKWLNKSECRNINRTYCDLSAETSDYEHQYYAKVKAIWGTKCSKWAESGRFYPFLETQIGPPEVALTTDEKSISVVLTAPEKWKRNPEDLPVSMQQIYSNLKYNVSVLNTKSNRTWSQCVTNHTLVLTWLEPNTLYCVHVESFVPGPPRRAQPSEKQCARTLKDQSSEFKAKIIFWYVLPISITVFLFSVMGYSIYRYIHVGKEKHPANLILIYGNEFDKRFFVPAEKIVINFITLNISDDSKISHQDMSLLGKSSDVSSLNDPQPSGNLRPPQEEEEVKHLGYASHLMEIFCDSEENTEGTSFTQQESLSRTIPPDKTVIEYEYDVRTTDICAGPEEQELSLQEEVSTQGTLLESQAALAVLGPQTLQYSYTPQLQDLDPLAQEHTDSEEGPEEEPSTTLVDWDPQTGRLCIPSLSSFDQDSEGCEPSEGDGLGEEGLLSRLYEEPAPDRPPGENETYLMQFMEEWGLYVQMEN", "T1 sequence 2": "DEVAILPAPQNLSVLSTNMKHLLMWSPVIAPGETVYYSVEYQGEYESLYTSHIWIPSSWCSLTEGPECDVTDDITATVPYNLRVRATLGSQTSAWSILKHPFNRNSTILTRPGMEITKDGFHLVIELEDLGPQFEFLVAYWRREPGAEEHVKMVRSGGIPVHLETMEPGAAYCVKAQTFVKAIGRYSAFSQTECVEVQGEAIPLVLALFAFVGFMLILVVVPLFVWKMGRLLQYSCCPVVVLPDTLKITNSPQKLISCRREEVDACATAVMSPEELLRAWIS", "procedure": "(§1) The specificity and affinity of IL-20 for its receptor was determined using BHK cells stably transfected with IL-20RA, IL-20RB or both receptor subunits. […] Binding of ¹²⁵I-labeled IL-20 was eliminated in the presence of 100-fold excess of unlabeled IL-20 but not with 100-fold excess of the unrelated cytokine, IL-21."}, "[2]": {"molecular_target": "T2, IL-20RA (full-length, on cells, without transfected IL-20RB) (human, UniProt Q9UHF4 30-553)", "T2 construct": "Also used as the target of the anti-IL-20RA antibody on human lung tissue, the positive control 'known with IL-20RA expression'; also called ZcytoR7; BaF3/KZ134/IL-20RA only cells", "T2 sequence": "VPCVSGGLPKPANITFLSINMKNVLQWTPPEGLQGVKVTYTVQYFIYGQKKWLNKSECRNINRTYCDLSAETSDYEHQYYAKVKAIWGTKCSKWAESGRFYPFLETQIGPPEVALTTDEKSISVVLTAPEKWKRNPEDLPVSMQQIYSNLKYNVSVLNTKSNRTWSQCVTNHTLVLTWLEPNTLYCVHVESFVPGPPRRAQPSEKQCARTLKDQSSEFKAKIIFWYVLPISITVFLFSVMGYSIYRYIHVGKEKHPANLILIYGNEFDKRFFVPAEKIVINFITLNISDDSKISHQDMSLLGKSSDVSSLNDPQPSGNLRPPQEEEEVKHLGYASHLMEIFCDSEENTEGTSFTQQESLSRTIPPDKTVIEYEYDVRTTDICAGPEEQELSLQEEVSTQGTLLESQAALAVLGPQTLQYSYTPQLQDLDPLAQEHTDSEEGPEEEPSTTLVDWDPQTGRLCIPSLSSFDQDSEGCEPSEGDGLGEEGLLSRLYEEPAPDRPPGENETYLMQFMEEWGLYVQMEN", "procedure": "as §1"}, "[3]": {"molecular_target": "T3, IL-20RB (full-length, on cells, without transfected IL-20RA) (human, UniProt Q6UXL0 30-311)", "T3 construct": "also called DIRS1; pDIRS1", "T3 sequence": "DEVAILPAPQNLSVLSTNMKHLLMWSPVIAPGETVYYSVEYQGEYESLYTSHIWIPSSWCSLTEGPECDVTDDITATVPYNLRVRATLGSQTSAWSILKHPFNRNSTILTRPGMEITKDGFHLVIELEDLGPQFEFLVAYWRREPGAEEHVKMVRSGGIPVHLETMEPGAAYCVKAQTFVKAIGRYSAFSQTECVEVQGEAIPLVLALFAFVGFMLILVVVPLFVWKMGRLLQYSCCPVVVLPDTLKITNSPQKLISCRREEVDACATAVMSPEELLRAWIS", "procedure": "as §1"}}}
{"binder": "IL-20 (ligand, biotin label in Example 6; 125I label in Example 10, also called Zcyto10; biotinylated IL-20 protein) LKTLNLGSCVIATNLQEIRNGFSDIRGSVQAKDGNIDIRILRRTESLQDTKPANRCCLLRHLLRLYLDRVFKNYQTPDHYTLRKISSLANSFLTIKKDLRLCHAHMTCHCGEEAMKKYSQILSHFEKLEPQAAVVKALGELDILLQWMEETE", "values": [{"measurement": "Kd", "setting": "[1]", "result": "~1.5", "unit": "nM"}, {"measurement": "binding result", "setting": "[2]", "result": "no binding"}, {"measurement": "binding result", "setting": "[3]", "result": "no binding"}]}
